Assay results published in patent US20060034863A1 (CHEMOCENTRYX, published 2006).

Assays:
[1] = target: MIP-1α binding sites on human monocytes (human); assay: 125I-MIP-1α competition binding on human monocytes against HEK293-CCR1 cells
[2] = target: MIP-1α binding sites on human monocytes (human); assay: displacement of 125I-MIP-1α from human monocytes, filter binding
[3] = target: T1, formyl peptide receptor like 1 (FPRL1) (human, UniProt P25090 1-351); assay: cell-based or functional assay
T1 sequence (looked up): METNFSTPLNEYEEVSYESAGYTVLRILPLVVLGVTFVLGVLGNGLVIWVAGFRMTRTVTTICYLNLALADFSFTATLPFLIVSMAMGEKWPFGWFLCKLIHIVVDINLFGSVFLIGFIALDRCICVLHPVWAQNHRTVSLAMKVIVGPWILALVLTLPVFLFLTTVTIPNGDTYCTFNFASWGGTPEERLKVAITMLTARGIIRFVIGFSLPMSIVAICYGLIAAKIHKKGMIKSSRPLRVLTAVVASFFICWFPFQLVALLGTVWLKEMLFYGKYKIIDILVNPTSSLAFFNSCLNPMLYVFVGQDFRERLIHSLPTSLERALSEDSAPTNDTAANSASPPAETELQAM

[4] = target: T1, formyl peptide receptor like 1 (FPRL1); assay: displacement of 0.01 nM 125I-WKYMVm from human monocytes, 3 h at 4°C
Description: (§1) The IC50 for each interaction was derived from non-linear least squares curve fitting of the data by using Prism software (GraphPad Software).

[5] = target: T2, human chemokine receptor CCR1 (human, UniProt P32246 1-355); assay: displacement of 125I-MIP-1α from HEK293-CCR1 cells
T2 construct: whole, on cells; also called HEK293-CCR1 transfectants
T2 sequence (looked up): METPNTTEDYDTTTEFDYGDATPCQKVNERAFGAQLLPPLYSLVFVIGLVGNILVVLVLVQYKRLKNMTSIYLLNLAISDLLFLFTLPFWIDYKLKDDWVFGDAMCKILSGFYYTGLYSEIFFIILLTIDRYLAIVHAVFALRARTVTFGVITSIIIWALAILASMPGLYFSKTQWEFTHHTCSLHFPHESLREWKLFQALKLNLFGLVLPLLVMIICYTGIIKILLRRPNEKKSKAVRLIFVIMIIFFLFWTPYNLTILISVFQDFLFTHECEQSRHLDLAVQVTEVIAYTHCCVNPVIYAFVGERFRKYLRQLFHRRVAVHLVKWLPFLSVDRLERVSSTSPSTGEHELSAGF
Experimental: (§2) The binding characteristics of CCL23 variants was compared in human CCR1 expressing cells. […] Reactions mixtures were aspirated onto PEI-treated GF/B glass filters using a cell harvester (Packard). The filters were washed twice (25 mM HEPES, 500 mM NaCl, 1 mM CaCl₂, 5 mM MgCl₂, adjusted to pH 7.1). Scintillant (MicroScint-10; 35 μl) was added to dried filters and the filiters counted in a Packard Topcount scintillation counter. Data were analyzed and plotted using Prism software (GraphPad Software, San Diego, Calif.).

[6] = target: T2, human chemokine receptor CCR1; assay: displacement of 125I-MIP-1α from HEK293-CCR1 cells, filter binding, 3 h at 4°C
Experimental: as §2

[7] = target: T1, formyl peptide receptor like 1 (FPRL1); assay: cell-based or functional assay; remark: listed apart in the source
[8] = target: T1, formyl peptide receptor like 1 (FPRL1); assay: displacement of 0.01 nM 125I-WKYMVm from L1.2 FPRL1 cells, 3 h at 4°C
Description: as §1

[9] = target: T1, formyl peptide receptor like 1 (FPRL1); assay: 125I-WKYMVm displacement on FPRL1-L1.2 transfectants and human monocytes
Description: as §1

B1: CKβ8-1(25-116) (ligand)
chain: MLWRRKIGPQMTLSHAAGFHATSADCCISYTPRSIPCSLLESYFETNSECSKPGVIFLTKKGRRFCANPSDKQVQVCMRMLKLDTRIKTRKN
notes: Human recombinant chemokine bought from R&D Systems; NH2-terminal truncated form of CKβ8-1; also called CCL23 variant
[1]
  fold higher MIP-1α displacement activity on monocytes than on HEK293-CCR1 cells: > 10 fold
[2]
  IC50: 5.1 nM
[3]
  EC50 of calcium flux dose response in FPRL1-L1.2 transfectants: 10 to 20 nM
[4]
  IC50: 31 nM
[5]
  fold IC50 change against CKβ8-1(1-116): 1 fold
[6]
  IC50: 112 nM
[7]
  Induction of Calcium Flux in FPRL1 L1.2 Cells (IC 50): 11 nM
[8]
  IC50: 196 nM

B2: MIP-1α (ligand, human, UniProt P10147 27-92, looked up)
chain: ADTPTACCFSYTSRQIPQNFIADYFETSSQCSKPGVIFLTKRSRQVCADPSEEWVQKYVSDLELSA
notes: also called macrophage inflammatory protein
[2]
  IC50: 0.27 nM
[6]
  IC50: 0.54 nM

B3: CKβ8(1-99) (ligand)
chain: RVTKDAETEFMMSKLPLENPVLLDRFHATSADCCISYTPRSIPCSLLESYFETNSECSKPGVIFLTKKGRRFCANPSDKQVQVCMRMLKLDTRIKTRKN
notes: Human recombinant chemokine bought from R&D Systems; also called CCL23 variant; CKβ (1-99)
[9]
  binding result: no binding
[2]
  IC50: 10.3 nM
[6]
  IC50: 64 nM

B4: CKβ8(25-99) (ligand)
chain: RFHATSADCCISYTPRSIPCSLLESYFETNSECSKPGVIFLTKKGRRFCANPSDKQVQVCMRMLKLDTRIKTRKN
notes: Human recombinant chemokine bought from R&D Systems; also called CCL23 variant; CKβ (25-99)
[9]
  binding result: no binding
[2]
  IC50: 0.25 nM
[5]
  fold IC50 change against CKβ8(1-99): 40 fold
[6]
  IC50: 1.34 nM

B5: CKβ8-1(1-116) (ligand)
chain: RVTKDAETEFMMSKLPLENPVLLDMLWRRKIGPQMTLSHAAGFHATSADCCISYTPRSIPCSLLESYFETNSECSKPGVIFLTKKGRRFCANPSDKQVQVCMRMLKLDTRIKTRKN
notes: Human recombinant chemokine bought from R&D Systems; also called CCL23 variant
[9]
  binding result: no binding
[2]
  IC50: 55 nM
[6]
  IC50: 206 nM

## MLWRRKIGPQMTLSHAAG [SHAAGtide (SEQ ID NO: 1)]
[7]
  Induction of Calcium Flux in FPRL1 L1.2 Cells (IC 50): 150 nM

## RRKIGPQMTLSHAAG [SHAAGtide truncated variant CCXP2 (SEQ ID NO: 2)]
[7]
  Induction of Calcium Flux in FPRL1 L1.2 Cells (IC 50): > 50000 nM

## MLWRRKIGPQMTLSH [SHAAGtide truncated variant CCXP3 (SEQ ID NO: 3)]
[7]
  Induction of Calcium Flux in FPRL1 L1.2 Cells (IC 50): 68 nM

## MLWRRKIGPQMT [SHAAGtide truncated variant CCXP5 (SEQ ID NO: 5)]
[7]
  Induction of Calcium Flux in FPRL1 L1.2 Cells (IC 50): 7.4 nM

## MLWRRKIGPQMTLSHAAY [SHAAYtide (SEQ ID NO: 6)]
[7]
  Induction of Calcium Flux in FPRL1 L1.2 Cells (IC 50): 38 nM

## MLWRRKIGPQM [SHAAGtide truncated variant CCXP8 (SEQ ID NO: 8)]
[7]
  Induction of Calcium Flux in FPRL1 L1.2 Cells (IC 50): 45 nM
